The text below walks through data of publication PMC10465699, “Interaction patterns of methoprene-tolerant and germ cell-expressed Drosophila JH receptors suggest significant differences in their functioning” (Frontiers in Molecular Biosciences, 2023).

T1: Germ cell-expressed C-terminus (GceC, 661-959 aa) (D. melanogaster, UniProt Q9VXW7 661-959)
T1 construct: Germ cell-expressed (Gce) protein, D. melanogaster, UniProt Q9VXW7, residues 661-959 (C-terminal fragment); No step that removes the His tag is described; also called Gce C-terminus
T1 sequence (looked up): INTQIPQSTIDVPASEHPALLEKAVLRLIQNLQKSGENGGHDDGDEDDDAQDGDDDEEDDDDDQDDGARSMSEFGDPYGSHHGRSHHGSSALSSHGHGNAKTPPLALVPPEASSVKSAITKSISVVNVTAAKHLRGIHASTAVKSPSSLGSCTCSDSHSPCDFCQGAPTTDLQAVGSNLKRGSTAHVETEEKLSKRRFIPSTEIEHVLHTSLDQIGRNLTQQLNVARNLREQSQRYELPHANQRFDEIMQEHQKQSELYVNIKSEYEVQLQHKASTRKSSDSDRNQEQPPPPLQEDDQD

B1: Methoprene-tolerant C-terminus (MetC, 509-716 aa) (domain or fragment, D. melanogaster, UniProt Q9VYW2 509-716, looked up)
chain: AGRQKVQEMKEKFSTIIKAEMPTQSSSPDLPASQAPQQLERIVLYLIENLQKSVDSAETVGGQGMESLMDDGYSSPANTLTLEELAPSPTPALALVPPAPSSVKSSISKSVSVVNVTAARKFQQEHQKQRERDREQLKERTNSTQGVIRQLSSCLSEAETASCILSPASSLSASEAPDTPDPHSNTSPPPSLHTRPSVLHRTLTSTLR
notes: Methoprene-tolerant (Met) protein, D. melanogaster, UniProt Q9VYW2, residues 509-716 (C-terminal fragment); 15N- or 13C,15N-labelled where it was the observed protein in NMR, unlabelled where it was added to 15N Ftz-F1 LBD; also called Met C-terminus; source: E. coli BL21(DE3), purified (Ni-NTA, on-column SUMO hydrolase digestion, SEC); not shown: His6, N-terminal, cleaved; SUMO, N-terminal, …
B2: Fushi tarazu factor-1 ligand-binding domain (Ftz-F1 LBD, 786-1027 aa) (domain or fragment, D. melanogaster, UniProt P33244 786-1027, looked up)
chain: ALIEPLRVSPMIREFVQSIDDREWQTQLFALLQKQTYNQVEVDLFELMCKVLDQNLFSQVDWARNTVFFKDLKVDDQMKLLQHSWSDMLVLDHLHHRIHNGLPDETQLNNGQVFNLMSLGLLGVPQLGDYFNELQNKLQDLKFDMGDYVCMKFLILLNPSVRGIVNRKTVSEGHDNVQAALLDYTLTCYPSVNDKFRGLVNILPEIHAMAVRGEDHLYTKHCAGSAPTQTLLMEMLHAKRKG
notes: 15N- or 13C,15N-labelled where it was the observed protein in NMR, unlabelled otherwise; also called LBD Ftz-F1; source: E. coli BL21(DE3), purified (Ni-NTA, thrombin digestion, SEC); not shown: His6, N-terminal, cleaved
B3: Met^PEP, 19-residue peptide of the novel NR-box of MetC (peptide)
peptide: LERIVLYLIENLQKSVDSA
notes: 19-residue peptide representing the novel NR-box in the C-terminus of Met, D. melanogaster, UniProt Q9VYW2; also called MetC^PEP; source: synthetic peptide (PSL GmbH, Heidelberg)

What all share (conditions): both partners purified
The target in experiment [1] is B2. Kind of experiment: NMR titration; 15N-HSQC of 150 uM 15N-MetC with unlabelled Ftz-F1 LBD at 0, 40, 82, 122, 199, 301 and 500 uM (cross-mixing); 20 mM Bis-Tris pH 6.5, 150 mM NaCl, 5 mM bME; 18 C.
Experiment [2] deals with T1, Germ cell-expressed C-terminus (GceC, …). Kind of experiment: NMR titration; 15N-HSQC of 15N Ftz-F1 LBD without and with an equimolar quantity of unlabelled MetC or GceC; 20 mM sodium phosphate pH 6.8, 50 mM NaCl, 1 mM TCEP, 0.5 mM EDTA; 29 C.
Experiment [3] has as its target B2. As to the kind of experiment: ITC; 1.06 mM Met^PEP titrated into 0.035 mM Ftz-F1 LBD; 25 C; 20 mM HEPES pH 6.8, 150 mM NaCl, 1 mM TCEP; duplicate, global fit to A + B = AB. A general note: Isothermal titration calorimetry measures the heat released or taken up as one component is titrated into another.

Regarding B1, in experiment [1], the binding result is on record as “binds”.

As for B2, the binding result in experiment [2] was “binds”.

For B3, in experiment [3], the Kd was determined as 9.9 µM, the dH is -1.1 kcal/mol and the “stoichiometry N” value amounted to 1.

Usually Kd stands for the constant that tells how readily two partners part at equilibrium. Usually stoichiometry N stands for a count of units in the complex or per binding partner.
